Measurements as given in article PMC11044165, “Two Novel [^68Ga]Ga-Labeled Radiotracers Based on Metabolically Stable [Sar^11]RM26 Antagonistic Peptide for Diagnostic Positron Emission Tomography Imaging of GRPR-Positive Prostate Cancer” (ACS Omega, 2024).

Columns and labels:
[1] = in vivo; set-up: species or system BALB/C nu/nu mice; conditions: BALB/C nu/nu, mouse, iv, total radioactivity
Protocol: In vivo studies were conducted in accordance with European guidelines on laboratory animal protection and the Declaration of Helsinki. For the biodistribution and PET/CT experiments BALB/C nu/nu mice were used and the protocols were approved by the ethics committee for animal research in Uppsala (Sweden); permit number 00473/21.
After acclimatization, animals were subcutaneously injected on the right hind leg with a suspension of freshly harvested PC-3 cells (7 × 10^6 per animal) in PBS. Four weeks after, well palpable solid tumors were developed and the animals were randomly assigned in groups of four.
Animals (19 ± 2 g at the day of the experiment) were injected through the tail vein with 100 μL solution of radiopeptide under evaluation (40 pmol, 100 kBq–1 h pi, 40 pmol, 700 kBq–3 h pi) in PBS containing 1% w/v BSA. Another group of animals received a bolus injection with the radioconjugate (40 pmol, 300 kBq) in addition of 4 nmol of NOTA-PEG2-RM26–1 h pi Block group. At specified time points, animals were euthanized, tissues/organs of interest and tumors were collected, weighted, and the radioactivity content of the samples was measured.
Statistical analysis for the biodistribution data was performed with GraphPad Prism 7, employing a two-way ANOVA test with Tuckey’s posthoc analysis.

[2] = in vivo; cited from earlier work
Text: In agreement with their preclinical data, SUV values for the pancreas for [^68Ga]Ga-SB3 and [^68Ga]Ga-RM2 were around 40, while for [^68Ga]Ga-PEG3-RM26, this value was 2-fold lower.

[3] = test system: PC-3 bearing mice; conditions: mouse, in vivo; cited from earlier work
Protocol: It is quite interesting to compare the biodistribution results for the two new conjugates with their counterparts without the Gly^11/Sar^11 substitution, i.e., [^68Ga]Ga-NOTA-PEG2-RM26 and [^68Ga]Ga-NODAGA-PEG2-RM26, previously reported.[24] Despite the similar amounts of peptide and activity injected, the biodistribution data for [^68Ga]Ga-NOTA-PEG2-RM26 and [^68Ga]Ga-NODAGA-PEG2-RM26, in PC-3 bearing mice, are reported only for […].[24] Under these conditions, we are going to focus on a comparison with the data for 3 h pi.

[4] = 40 pmol, Activity in GI (gastrointestinal tract)
[5] = 40 pmol, Activity uptake in blood
[6] = 40 pmol, Activity uptake in kidneys
[7] = 40 pmol, Activity uptake in tumor
[8] = Activity in GI (gastrointestinal tract)

Row | Compound | tissue uptake dose at 1 h [1, 4] | tissue uptake dose at 3 h [1, 4] | tissue uptake dose at 1 h ([1]; 40 pmol, Activity in body) | tissue uptake dose at 3 h ([1]; 40 pmol, Activity in body) | tissue uptake at 1 h [1, 5] | tissue uptake at 1 h [1, 6] | tissue uptake at 1 h [1, 7] | tissue uptake at 3 h [1, 7] | tissue uptake dose at 1 h [1, 8] | tissue uptake dose at 1 h ([1]; Activity in body) | SUV values for the pancreas [2] | Tumor/pancreas ratio [3]
1 | CC(C)C[C@H](NC(=O)C[C@H](O)[C@H](CC(C)C)NC(=O)[C@H](Cc1c[nH]cn1)NC(=O)CN(C)C(=O)[C@@H](NC(=O)[C@H](C)NC(=O)[C@H](Cc1c[nH]c2ccccc12)NC(=O)[C@H](CCC(N)=O)NC(=O)[C@@H](Cc1ccccc1)NC(=O)COCCOCCNC(=O)CCC(C(=O)O)N1CCN(CC(=O)O)CCN(CC(=O)O)CC1)C(C)C)C(N)=O (stereo partly drawn) [[^68Ga]Ga-NODAGA-PEG2-[Sar^11]RM26, metal not drawn] | 2.5 ± 0.3 %ID | 1.8 ± 0.7 %ID | 3.8 ± 0.6 %ID | 2.2 ± 0.9 %ID | < 1 %ID/g | < 5 %ID/g | 17 ± 3 %ID/g | 15 ± 3 %ID/g | 1.6 ± 0.2 %ID | 4 ± 3 %ID | – | –
2 | CC(C)C[C@H](NC(=O)C[C@H](O)[C@H](CC(C)C)NC(=O)[C@H](Cc1c[nH]cn1)NC(=O)CN(C)C(=O)[C@@H](NC(=O)[C@H](C)NC(=O)[C@H](Cc1c[nH]c2ccccc12)NC(=O)[C@H](CCC(N)=O)NC(=O)[C@@H](Cc1ccccc1)NC(=O)COCCOCCNC(=O)CN1CCN(CC(=O)O)CCN(CC(=O)O)CC1)C(C)C)C(N)=O [[^68Ga]Ga-NOTA-PEG2-[Sar^11]RM26, metal not drawn] | 3 ± 0.4 %ID | 2 ± 1 %ID | 5 ± 0.2 %ID | 2 ± 1 %ID | < 1 %ID/g | < 5 %ID/g | 14 ± 3 %ID/g | 13 ± 1 %ID/g | 1.7 ± 0.2 %ID | 4.1 ± 0.6 %ID | – | –
3 | DOTA-Pip-DPhe-Gln-Trp-Ala-Val-Gly-His-Sta-Leu-NH2 [[^68Ga]Ga-RM2, GRPR-targeting radioconjugate tested in clinical trials] | – | – | – | – | – | – | – | – | – | – | around 40 | –
4 | DOTA-p-aminomethylaniline-diglycolic acid-DPhe-Gln-Trp-Ala-Val-Gly-His-Leu-NHEt [[^68Ga]Ga-SB3, GRPR-targeting radioconjugate tested in clinical trials] | – | – | – | – | – | – | – | – | – | – | around 40 | –
5 | NOTA-PEG3-d-Phe-Gln-Trp-Ala-Val-Gly-His-Sta-Leu-NH2 [[^68Ga]Ga-NOTA-PEG3-RM26, GRPR-targeting radioconjugate tested in clinical trials] | – | – | – | – | – | – | – | – | – | – | 2-fold lower | over 1
